# Test results: US20230313217A1, “CHLOROPLAST TARGETING PEPTIDES AND CONJUGATES AND COMPOSITIONS THEREOF” (The Regents of the University of California, priority 2021, published 2023)
# Ends that are not written are not given here.
# Assays:
# [1] = ζ potential of carbon nanostructures (Zetasizer); type: physicochemical
# Experimental: (§1) The resulting PEI-SWCNT suspension was characterized by measuring the absorbance spectra on a UV-vis absorbance spectrophotometer (UV-2600, Shimadzu). The quality of the SWCNT suspension was determined by analyzing absorbance peaks at 632 nm. This measurement was performed with triplicates. The concentration of the PEI-SWCNT was determined spectrophotometrically using the absorption value at 632 nm and utilizing the equation (absorbance at 632 nm/extinction coefficient of 0.036)=mg L^−1. The final concentration obtained after purification ranged from 18 to 30 mg/L. The nanoparticle ζ potential was measured using a Zetasizer (Nano ZS, Malvern Instruments) in samples suspended in 10 mM TES buffer pH 7.0, with 0.1 mM NaCl. The hydrodynamic size was measured using Zetasizer (Nano ZS, Malvern Instruments) in samples suspended in a 10 mM TES buffer at pH 7.
# (§2) Characterization of Nanomaterials. All nanomaterials were characterized by absorbance UV-vis spectroscopy (UV-2600 Shimadzu), hydrodynamic size (Nano S), and ζ potential (Nano ZS). The nanomaterial ζ potential and hydrodynamic diameter were measured in a 10 mM TES buffer (pH 7.0). The ζ potential measurements were performed in 0.1 mM NaCl to improve conductivity and analyzed by the Hückel approximation model.^111 CD fluorescence emission was collected using a fluorescence spectrometer (Horiba PTI QM-400). The stepwise synthesis of TP-β-CDs was analyzed using FTIR (Thermo Nicolet 6700 FTIR).
# [2] = Hydrodynamic size by dynamic light scattering; type: physicochemical; conditions: 10 mM TES buffer, pH 7
# Experimental: as §1
# as §2, with “The stepwise synthesis of TP-β-CDs was analyzed using FTIR (Thermo Nicolet 6700 FTIR).” left out
# [3] = tested on: Arabidopsis leaf mesophyll tissue; assay: Plant cell viability assay (propidium iodide, percentage of dead cells); type: in vivo, Arabidopsis thaliana
# Experimental: Impact of Targeted Nanomaterials on Plant Cell Viability. We investigated the viability of plant cells treated with increasing concentrations of targeted and nontargeted nanomaterials by measuring the percentage of dead plant cells. Arabidopsis leaf tissues were treated with targeted nanomaterials at 20, 100, 500 mg/L concentrations of TP-β-CDs or 2, 5, 10 mg/L of TP-pATV1-SWCNTs (FIG. 6, Table 1). Biocompatibility assays were performed up to 5 days of nanocarrier exposure before control Arabidopsis plants experienced the onset of leaf senescence marked by significant changes in chlorophyll levels (FIG. 15A). On day 7, significant differences in chlorophyll were detected in control Arabidopsis plants without nanomaterials. […] Therefore, subsequent experiments assessing the impact of targeted nanocarriers on plant cell and molecular biology were focused on biocompatible concentrations of 20 mg/L for TP-β-CDs and 2 mg/L for TP-pATV1-SWCNTs.
# The percentage of intact cells was determined in Arabidopsis thaliana leaf tissues treated with TP-β-CD (20, 100, 500 mg/L) or TP-pATV1-SWCNT (2, 5, 10 mg/L) from one to five days. The nuclei of dead cells were stained with propidium iodide (PI) diluted to 1× concentration manufactures (Plant cell viability assay kit, PA0100, Sigma-Aldrich). Leaf discs were collected and incubated in PI dye for 15 minutes before confocal analysis. PI can enter cells with damaged membranes, and bind to double-stranded nucleic acids in non-viable cells. […] The total number of cells was determined using chloroplast autofluorescence to identify the leaf mesophyll cell boundaries. The leaf disc surface was washed with DI water to remove the residual dye and mounted on a microscope glass slide for imaging by laser scanning confocal microscope (TCS SP5, Leica Microsystems, Germany). Confocal imaging settings were as follows: ×40 wet objective (Leica Microsystems, Germany), propidium iodide dye excitation by a 543 nm laser (40% power), and PMT emission detection range set to 590-630 nm with Pinhole size set to 3 airy units.
# [4] = tested on: plant cell membranes; assay: Plant cell membrane intactness (PI staining, confocal); type: in vivo, Arabidopsis thaliana; conditions: after 5 days of exposure; 20 mg/L / 2 mg/L
# Source text: Interactions of Targeted Carbon Nanostructures with Plant Cell and Chloroplast Membranes. Damage to plant lipid membranes may cause ion and molecule permeability changes across the membrane, interruption of metabolic processes, intracellular signaling, and trafficking of biomolecules.^65,66 The application of targeted nanostructures with high charge allows penetration of plant cell barriers and localization inside organelles that could cause disruption in lipid membrane integrity. Plant cell membrane intactness in leaves treated with TP-β-CDs or TP-pATV1-SWCNTs (Table 1) was assessed by staining dead cells with propidium iodide (PI) dye followed by imaging under confocal microscopy (FIG. 7A). PI is a nonpermeable dye that only crosses the cell membranes when they are damaged. The overall percentage of intact cells without PI stained nuclei was calculated relative to the total number of cells (FIG. 7B). […] Both TP-β-CDs and TP-pATV1-SWCNTs maintained more than 93% of plant cells with intact membranes after 1 and 5 days of exposure, similar to controls without nanoparticles (FIG. 7B). […]
# The percentage of intact cells was determined in Arabidopsis thaliana leaf tissues treated with TP-β-CD (20, 100, 500 mg/L) or TP-pATV1-SWCNT (2, 5, 10 mg/L) from one to five days. […] The total number of cells was determined using chloroplast autofluorescence to identify the leaf mesophyll cell boundaries. […]
# [5] = tested on: Arabidopsis leaf tissues; assay: Chlorophyll content index (SPAD) measurements; type: in vivo, Arabidopsis thaliana; conditions: 20 mg/L / 2 mg/L
# Experimental: Chlorophyll content index (CCI) was measured in plants treated one and five days after treatment with nanomaterials and buffer control solution (10 mM TES, pH 7.0). Three-week-old Arabidopsis plants were exposed to β-CD, TP-β-CD, pATV1-SWCNT, or TP-pATV1-SWCNT. The CCI measurements were performed using chlorophyll meters (SPAD-502 plus, Konica Minolta, Tokyo, Japan; CCI readout resolution: 0.1) with each leaf being measured three times for CCI readouts. The onset of leaf senescence was determined by a marked decrease in chlorophyll levels (FIG. 14B). Experiments before 4-weeks of development are ideal to avoid plant senescence symptoms such as the increase in programmed cell death rates and decrease in chlorophyll content.^6-9
# [6] = tested on: whole plant cell DNA; conditions: in vivo
# Experimental: DNA was extracted from plant leaf tissue and prepared using a Quick-DNA Plant/Seed DNA Miniprep kit (Zymo) in leaf samples treated with nanomaterials from one to five days. Each DNA sample contained 150 mg of plant tissue or 1 mL of isolated chloroplast suspension collected as explained above. Samples were placed in liquid nitrogen-filled mortar and pestle, ground, and placed directly into a Zymo BashingBead Lysis Tube with 750 μL BashingBead Buffer. The mixture was homogenized on a mixer mill (Retsch MM 400) for 10 minutes at 28 Hz. The DNA extraction was performed according to the manufacturer's instructions (zymoresearch.com) and concentrations were measured using a Nanodrop ND-1000 Spectrophotometer. Samples were stored at −20° C. until used for the 8-OHdG DNA damage biomarker assay.
# We determined the amount of oxidative DNA damage in plant leaves treated with nanomaterials for one day or five days using an enzyme-linked immunosorbent assay (ELISA) for 8-hydroxydeoxyguanosine (8-OHdG). The OxiSelect™ Oxidative DNA Damage ELISA Kit (Cat# STA-320, Cell Biolabs, inc.) quantifies the amount of 8-OHdG in isolated DNA samples from plant leaf tissue or isolated chloroplast suspensions. […] Sample absorbance was read at 450 nm on an Infinite MPlex plate reader (Tecan).
substance,measurement,setting,value
"TP-β-CD: carbon dots with β-cyclodextrin molecular baskets covalently bonded to chloroplast targeting peptide MASSMLSSATMVGGC (SEQ ID NO:5) (also: covalently bonded to carbon dots with β-cyclodextrin, site not given here)",ζ potential,"[1]; 10 mM TES buffer, pH 7.0",−36.4±3.4 mV
same,"ζ potential, magnitude",[1]; higher in magnitude than,> 30 mV
same,hydrodynamic size (DLS),[2],27.8±5.8 nm
same,biocompatible concentration,"[3]; Arabidopsis leaves, up to 5 days",20 mg/L
same,percentage of dead cells,"[3]; TP-β-CD 20 mg/L, TP-pATV1-SWCNT 2 mg/L, summary",6%
same,percentage of dead cells compared to control plants,"[3]; after 5 days of exposure, TP-β-CDs 20 mg/L, TP-pATV1-SWCNTs 2 mg/L",no significant differences
same,plant dead cells relative to controls without nanoparticles,"[3]; day 1, TP-β-CDs 20 mg/L, TP-pATV1-SWCNTs 2 mg/L",no significant differences
same,percentage of dead cells,"[3]; day 5, 100 mg/L",20.0±4.8%
same,percentage of dead cells,"[3]; day 5, 500 mg/L",23.4±4.8%
same,cell and chloroplast membrane damage,[4],no permanent cell and chloroplast membrane damage
same,chlorophyll content index (CCI),[5]; after 1 day of exposure,35.5±1.4
same,chlorophyll content index (CCI),[5]; after 5 days of exposure,38.0±2.8
same,increase in oxidative damage to whole plant cell DNA,[6],2 fold
